Measured values from the RNAGym collection of RNA variant scans (doi:10.7554/elife.80360).

B1: CPEB3 Ribozyme (parent)
chain: GGGGGCCACAGCAGAAGCGUUCACGUCGCGGCCCCUGUCAGAUUCUGGUGAAUCUGCGAAUUCUGCUGU

Variants of: B1
Test: self-cleavage, relative activity (ratio to wild type); higher = more cleavage; co-transcriptional

Point of comparison: A16G A23G, self-cleavage 0.921. Against it:
- A16C A51G — lower, 0.33
- A16C A51U — lower, 0.239
- A16C A52C — lower, 0.239
- A16C A52U — lower, 0.249
- A16C A59G — lower, 0.287
- A16C A60G — lower, 0.418
- A16C A60U — lower, 0.103
- A16C C18A — lower, 0.129
- A16C C18G — lower, 0.114
- A16C C22A — lower, 0.105
- A16C C22G — lower, 0.0967
- A16C C24G — lower, 0.171
- A16C C27A — lower, 0.114
- A16C C27G — lower, 0.122
- A16C C27U — lower, 0.15
- A16C C29A — lower, 0.186
- A16C C29G — lower, 0.165
- A16C C29U — lower, 0.192
- A16C C32G — lower, 0.136
- A16C C32U — lower, 0.299
- A16C C33A — lower, 0.213
- A16C C33G — lower, 0.0588
- A16C C34G — lower, 0.168
- A16C C34U — lower, 0.353
- A16C C35A — lower, 0.071
- A16C C35G — lower, 0.118
- A16C C35U — lower, 0.17
- A16C C39A — lower, 0.108
- A16C C54A — lower, 0.256
- A16C C54G — lower, 0.152
- A16C C54U — lower, 0.313
- A16C C57U — lower, 0.107
- A16C C63A — lower, 0.173
- A16C C63G — lower, 0.12
- A16C C63U — lower, 0.19
- A16C C66A — lower, 0.18
- A16C C66G — lower, 0.198
- A16C G17A — lower, 0.144
- A16C G17C — lower, 0.0992
- A16C G17U — lower, 0.127
- A16C G19A — lower, 0.132
- A16C G19C — lower, 0.0843
- A16C G19U — lower, 0.137
- A16C G25A — lower, 0.139
- A16C G25U — lower, 0.103
- A16C G28A — lower, 0.103
- A16C G28C — lower, 0.133
- A16C G30C — lower, 0.191
- A16C G37A — lower, 0.0923
- A16C G37C — lower, 0.176
- A16C G37U — lower, 0.0859
- A16C G41A — lower, 0.129
- A16C G41U — lower, 0.142
- A16C G47A — lower, 0.303
- A16C G47C — lower, 0.368
- A16C G48A — lower, 0.328
- A16C G48U — lower, 0.375
- A16C G50C — lower, 0.301
- A16C G56U — lower, 0.145
- A16C G58A — lower, 0.189
- A16C G58C — lower, 0.28
- A16C G58U — lower, 0.494
- A16C G65A — lower, 0.155
- A16C G65U — lower, 0.13
- A16C G68A — lower, 0.61
- A16C G68C — lower, 0.454
- A16C U20G — lower, 0.285
- A16C U21A — lower, 0.273
- A16C U21G — lower, 0.0655
- A16C U26A — lower, 0.158
- A16C U26C — lower, 0.264
- A16C U26G — lower, 0.102
- A16C U36A — lower, 0.115
- A16C U36C — lower, 0.165
- A16C U36G — lower, 0.108
- A16C U38A — lower, 0.269
- A16C U38C — lower, 0.137
- A16C U38G — lower, 0.15
- A16C U43A — lower, 0.118
- A16C U44C — lower, 0.178
- A16C U46A — lower, 0.51
- A16C U49A — lower, 0.419
- A16C U49C — lower, 0.377
- A16C U49G — lower, 0.319
- A16C U53C — lower, 0.152
- A16C U53G — lower, 0.251
- A16C U55A — lower, 0.153
- A16C U55G — lower, 0.204
- A16C U61G — lower, 0.848
- A16C U64G — lower, 0.119
- A16C U67A — lower, 0.331
- A16C U67G — lower, 0.257
- A16C U69A — lower, 0.451
- A16C U69G — lower, 0.588
- A16G — higher, 0.946
- A16G A23C — higher, 0.928
- A16G A23U — higher, 0.955
- A16G A40C — lower, 0.243
- A16G A40U — lower, 0.409
- A16G A42C — lower, 0.608
- A16G A51C — lower, 0.819
- A16G A51G — lower, 0.894
- A16G A52G — lower, 0.87
- A16G A52U — lower, 0.804
- A16G A59C — lower, 0.417
- A16G A59G — higher, 0.944
- A16G A60C — lower, 0.58
- A16G A60U — lower, 0.207
- A16G C18A — lower, 0.0836
- A16G C18U — lower, 0.569
- A16G C22G — lower, 0.0656
- A16G C29A — lower, 0.224
- A16G C29U — lower, 0.111
- A16G C32U — higher, 0.941
- A16G C33G — lower, 0.29
- A16G C33U — higher, 0.946
- A16G C34A — lower, 0.583
- A16G C34G — lower, 0.576
- A16G C34U — lower, 0.845
- A16G C35U — lower, 0.893
- A16G C39A — lower, 0.591
- A16G C39G — lower, 0.745
- A16G C39U — lower, 0.808
- A16G C45A — lower, 0.811
- A16G C45G — higher, 0.958
- A16G C45U — lower, 0.884
- A16G C54U — higher, 0.928
- A16G C57A — lower, 0.335
- A16G C57G — lower, 0.324
- A16G C57U — lower, 0.317
- A16G C63A — lower, 0.648
- A16G C63G — lower, 0.527
- A16G C66G — lower, 0.646
- A16G C66U — lower, 0.89
- A16G G17A — lower, 0.0854
- A16G G17U — lower, 0.559
- A16G G25A — lower, 0.283
- A16G G25C — lower, 0.257
- A16G G25U — lower, 0.174
- A16G G28C — lower, 0.0652
- A16G G30A — lower, 0.612
- A16G G30C — lower, 0.105
- A16G G30U — lower, 0.201
- A16G G31A — lower, 0.527
- A16G G31C — lower, 0.147
- A16G G31U — lower, 0.309
- A16G G37C — lower, 0.146
- A16G G37U — lower, 0.216
- A16G G41C — lower, 0.41
- A16G G41U — lower, 0.472
- A16G G47U — higher, 0.998
- A16G G48A — higher, 0.964
- A16G G48C — lower, 0.892
- A16G G48U — higher, 0.974
- A16G G50U — higher, 0.994
- A16G G56A — lower, 0.703
- A16G G56C — lower, 0.458
- A16G G58C — higher, 0.95
- A16G G65C — lower, 0.446
- A16G G68C — higher, 0.981
- A16G G68U — higher, 0.956
- A16G U20A — lower, 0.129
- A16G U20C — lower, 0.159
- A16G U20G — lower, 0.155
- A16G U21C — lower, 0.777
- A16G U21G — lower, 0.395
